IntAct's records for PubMed 18093920

B1: Syndecan-1 (Homo sapiens), P18827 (parent)
chain: MRRAALWLWLCALALSLQPALPQIVATNLPPEDQDGSGDDSDNFSGSGAGALQDITLSQQTPSTWKDTQLLTAIPTSPEPTGLEATAASTSTLPAGEGPKEGEAVVLPEVEPGLTAREQEATPRPRETTQLPTTHLASTTTATTAQEPATSHPHRDMQPGHHETSTPAGPSQADLHTPHTEDGGPSATERAAEDGASSQLPAAEGSGEQDFTFETSGENTAVVAVEPDRRNQSPVDQGATGASQGLLDRKEVLGGVIAGGLVGLIFAVCLVGFMLYRMKKKDEGSYSLEEPKQANGGAYQKPTKQEEFYA
B2: Syndecan-2 (Homo sapiens), P34741 (parent)
chain: MRRAWILLTLGLVACVSAESRAELTSDKDMYLDNSSIEEASGVYPIDDDDYASASGSGADEDVESPELTTSRPLPKILLTSAAPKVETTTLNIQNKIPAQTKSPEETDKEKVHLSDSERKMDPAEEDTNVYTEKHSDSLFKRTEVLAAVIAGGVIGFLFAIFLILLLVYRMRKKDEGSYDLGERKPSSAAYQKAPTKEFYA
partner: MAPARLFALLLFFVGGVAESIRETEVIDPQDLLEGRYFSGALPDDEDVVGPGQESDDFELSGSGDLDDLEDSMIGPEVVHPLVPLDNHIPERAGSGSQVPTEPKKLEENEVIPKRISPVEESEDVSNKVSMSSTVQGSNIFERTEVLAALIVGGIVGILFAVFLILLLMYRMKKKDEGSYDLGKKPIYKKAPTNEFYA
B3: Syndecan-3 (Homo sapiens), O75056 (parent)
chain: MKPGPPHRAGAAHGAGAGAGAAAGPGARGLLLPPLLLLLLAGRAAGAQRWRSENFERPVDLEGSGDDDSFPDDELDDLYSGSGSGYFEQESGIETAMRFSPDVALAVSTTPAVLPTTNIQPVGTPFEELPSERPTLEPATSPLVVTEVPEEPSQRATTVSTTMATTAATSTGDPTVATVPATVATATPSTPAAPPFTATTAVIRTTGVRRLLPLPLTTVATARATTPEAPSPPTTAAVLDTEAPTPRLVSTATSRPRALPRPATTQEPDIPERSTLPLGTTAPGPTEVAQTPTPETFLTTIRDEPEVPVSGGPSGDFELPEEETTQPDTANEVVAVGGAAAKASSPPGTLPKGARPGPGLLDNAIDSGSSAAQLPQKSILERKEVLVAVIVGGVVGALFAAFLVTLLIYRMKKKDEGSYTLEEPKQASVTYQKPDKQEEFYA
partner: B2 partner
B4: Syndecan-4 (Homo sapiens), P31431 (parent)
chain: B2 partner
B5: Syndecan-2 (Homo sapiens), P34741 (parent)
chain: B2 chain
B6: Syndecan-3 (Homo sapiens), O75056 (parent)
chain: B3 chain
B7: Syndecan-2 (Homo sapiens), P34741 (parent)
chain: B2 chain
partner: B1 chain

Variants of: B1
Conditions: with sdc2_human SDC2, P34741

effect of a mutation on the interaction	Variant
decreasing interaction	MRRAALWLWLCALALSLQPALPQIVATNLPPEDQDGSGDDSDNFSGSGAGALQDITLSQQTPSTWKDTQLLTAIPTSPEPTGLEATAASTSTLPAGEGPKEGEAVVLPEVEPGLTAREQEATPRPRETTQLPTTHLASTTTATTAQEPATSHPHRDMQPGHHETSTPAGPSQADLHTPHTEDGGPSATERAAEDGASSQLPAAEGSGEQDFTFETSGENTAVVAVEPDRRNQSPVDQGATGASQGLLDRKEVLGGVIALGLVGLIFAVCLVGFMLYRMKKKDEGSYSLEEPKQANGGAYQKPTKQEEFYA [G259L]
decreasing interaction	MRRAALWLWLCALALSLQPALPQIVATNLPPEDQDGSGDDSDNFSGSGAGALQDITLSQQTPSTWKDTQLLTAIPTSPEPTGLEATAASTSTLPAGEGPKEGEAVVLPEVEPGLTAREQEATPRPRETTQLPTTHLASTTTATTAQEPATSHPHRDMQPGHHETSTPAGPSQADLHTPHTEDGGPSATERAAEDGASSQLPAAEGSGEQDFTFETSGENTAVVAVEPDRRNQSPVDQGATGASQGLLDRKEVLGGVIAGGLVLLIFAVCLVGFMLYRMKKKDEGSYSLEEPKQANGGAYQKPTKQEEFYA [G263L]

Variants of: B1
Conditions: with sdc3_human SDC3, O75056

effect of a mutation on the interaction	Variant
decreasing interaction	MRRAALWLWLCALALSLQPALPQIVATNLPPEDQDGSGDDSDNFSGSGAGALQDITLSQQTPSTWKDTQLLTAIPTSPEPTGLEATAASTSTLPAGEGPKEGEAVVLPEVEPGLTAREQEATPRPRETTQLPTTHLASTTTATTAQEPATSHPHRDMQPGHHETSTPAGPSQADLHTPHTEDGGPSATERAAEDGASSQLPAAEGSGEQDFTFETSGENTAVVAVEPDRRNQSPVDQGATGASQGLLDRKEVLGGVIALGLVGLIFAVCLVGFMLYRMKKKDEGSYSLEEPKQANGGAYQKPTKQEEFYA [G259L]
decreasing interaction	MRRAALWLWLCALALSLQPALPQIVATNLPPEDQDGSGDDSDNFSGSGAGALQDITLSQQTPSTWKDTQLLTAIPTSPEPTGLEATAASTSTLPAGEGPKEGEAVVLPEVEPGLTAREQEATPRPRETTQLPTTHLASTTTATTAQEPATSHPHRDMQPGHHETSTPAGPSQADLHTPHTEDGGPSATERAAEDGASSQLPAAEGSGEQDFTFETSGENTAVVAVEPDRRNQSPVDQGATGASQGLLDRKEVLGGVIAGGLVLLIFAVCLVGFMLYRMKKKDEGSYSLEEPKQANGGAYQKPTKQEEFYA [G263L]

Variants of: B2
Conditions: with sdc4_human SDC4, P31431

effect of a mutation on the interaction	Variant
decreasing interaction	MRRAWILLTLGLVACVSAESRAELTSDKDMYLDNSSIEEASGVYPIDDDDYASASGSGADEDVESPELTTSRPLPKILLTSAAPKVETTTLNIQNKIPAQTKSPEETDKEKVHLSDSERKMDPAEEDTNVYTEKHSDSLFKRTEVLAAVIALGVIGFLFAIFLILLLVYRMRKKDEGSYDLGERKPSSAAYQKAPTKEFYA [G152L]
decreasing interaction	MRRAWILLTLGLVACVSAESRAELTSDKDMYLDNSSIEEASGVYPIDDDDYASASGSGADEDVESPELTTSRPLPKILLTSAAPKVETTTLNIQNKIPAQTKSPEETDKEKVHLSDSERKMDPAEEDTNVYTEKHSDSLFKRTEVLAAVIAGGVILFLFAIFLILLLVYRMRKKDEGSYDLGERKPSSAAYQKAPTKEFYA [G156L]

Variants of: B3
Conditions: with sdc4_human SDC4, P31431

effect of a mutation on the interaction	Variant
decreasing interaction	MKPGPPHRAGAAHGAGAGAGAAAGPGARGLLLPPLLLLLLAGRAAGAQRWRSENFERPVDLEGSGDDDSFPDDELDDLYSGSGSGYFEQESGIETAMRFSPDVALAVSTTPAVLPTTNIQPVGTPFEELPSERPTLEPATSPLVVTEVPEEPSQRATTVSTTMATTAATSTGDPTVATVPATVATATPSTPAAPPFTATTAVIRTTGVRRLLPLPLTTVATARATTPEAPSPPTTAAVLDTEAPTPRLVSTATSRPRALPRPATTQEPDIPERSTLPLGTTAPGPTEVAQTPTPETFLTTIRDEPEVPVSGGPSGDFELPEEETTQPDTANEVVAVGGAAAKASSPPGTLPKGARPGPGLLDNAIDSGSSAAQLPQKSILERKEVLVAVIVGGVVLALFAAFLVTLLIYRMKKKDEGSYTLEEPKQASVTYQKPDKQEEFYA [G396L]

Variants of: B4
Conditions: with sdc2_human SDC2, P34741

effect of a mutation on the interaction	Variant
decreasing interaction	MAPARLFALLLFFVGGVAESIRETEVIDPQDLLEGRYFSGALPDDEDVVGPGQESDDFELSGSGDLDDLEDSMIGPEVVHPLVPLDNHIPERAGSGSQVPTEPKKLEENEVIPKRISPVEESEDVSNKVSMSSTVQGSNIFERTEVLAALIVGGIVLILFAVFLILLLMYRMKKKDEGSYDLGKKPIYKKAPTNEFYA
decreasing interaction	MAPARLFALLLFFVGGVAESIRETEVIDPQDLLEGRYFSGALPDDEDVVGPGQESDDFELSGSGDLDDLEDSMIGPEVVHPLVPLDNHIPERAGSGSQVPTEPKKLEENEVIPKRISPVEESEDVSNKVSMSSTVQGSNIFERTEVLAALIVLGIVGILFAVFLILLLMYRMKKKDEGSYDLGKKPIYKKAPTNEFYA

Variants of: B4
Conditions: with sdc3_human SDC3, O75056

effect of a mutation on the interaction	Variant
decreasing interaction	MAPARLFALLLFFVGGVAESIRETEVIDPQDLLEGRYFSGALPDDEDVVGPGQESDDFELSGSGDLDDLEDSMIGPEVVHPLVPLDNHIPERAGSGSQVPTEPKKLEENEVIPKRISPVEESEDVSNKVSMSSTVQGSNIFERTEVLAALIVGGIVLILFAVFLILLLMYRMKKKDEGSYDLGKKPIYKKAPTNEFYA
decreasing interaction	MAPARLFALLLFFVGGVAESIRETEVIDPQDLLEGRYFSGALPDDEDVVGPGQESDDFELSGSGDLDDLEDSMIGPEVVHPLVPLDNHIPERAGSGSQVPTEPKKLEENEVIPKRISPVEESEDVSNKVSMSSTVQGSNIFERTEVLAALIVLGIVGILFAVFLILLLMYRMKKKDEGSYDLGKKPIYKKAPTNEFYA

Variants of: B5
Conditions: with sdc3_human SDC3, O75056

effect of a mutation on the interaction	Variant
decreasing interaction	MRRAWILLTLGLVACVSAESRAELTSDKDMYLDNSSIEEASGVYPIDDDDYASASGSGADEDVESPELTTSRPLPKILLTSAAPKVETTTLNIQNKIPAQTKSPEETDKEKVHLSDSERKMDPAEEDTNVYTEKHSDSLFKRTEVLAAVIAGGVILFLFAIFLILLLVYRMRKKDEGSYDLGERKPSSAAYQKAPTKEFYA [G156L]
decreasing interaction	MRRAWILLTLGLVACVSAESRAELTSDKDMYLDNSSIEEASGVYPIDDDDYASASGSGADEDVESPELTTSRPLPKILLTSAAPKVETTTLNIQNKIPAQTKSPEETDKEKVHLSDSERKMDPAEEDTNVYTEKHSDSLFKRTEVLAAVIALGVIGFLFAIFLILLLVYRMRKKDEGSYDLGERKPSSAAYQKAPTKEFYA [G152L]

Variants of: B6
Conditions: with sdc2_human SDC2, P34741

effect of a mutation on the interaction	Variant
decreasing interaction	MKPGPPHRAGAAHGAGAGAGAAAGPGARGLLLPPLLLLLLAGRAAGAQRWRSENFERPVDLEGSGDDDSFPDDELDDLYSGSGSGYFEQESGIETAMRFSPDVALAVSTTPAVLPTTNIQPVGTPFEELPSERPTLEPATSPLVVTEVPEEPSQRATTVSTTMATTAATSTGDPTVATVPATVATATPSTPAAPPFTATTAVIRTTGVRRLLPLPLTTVATARATTPEAPSPPTTAAVLDTEAPTPRLVSTATSRPRALPRPATTQEPDIPERSTLPLGTTAPGPTEVAQTPTPETFLTTIRDEPEVPVSGGPSGDFELPEEETTQPDTANEVVAVGGAAAKASSPPGTLPKGARPGPGLLDNAIDSGSSAAQLPQKSILERKEVLVAVIVLGVVGALFAAFLVTLLIYRMKKKDEGSYTLEEPKQASVTYQKPDKQEEFYA [G392L]
decreasing interaction	MKPGPPHRAGAAHGAGAGAGAAAGPGARGLLLPPLLLLLLAGRAAGAQRWRSENFERPVDLEGSGDDDSFPDDELDDLYSGSGSGYFEQESGIETAMRFSPDVALAVSTTPAVLPTTNIQPVGTPFEELPSERPTLEPATSPLVVTEVPEEPSQRATTVSTTMATTAATSTGDPTVATVPATVATATPSTPAAPPFTATTAVIRTTGVRRLLPLPLTTVATARATTPEAPSPPTTAAVLDTEAPTPRLVSTATSRPRALPRPATTQEPDIPERSTLPLGTTAPGPTEVAQTPTPETFLTTIRDEPEVPVSGGPSGDFELPEEETTQPDTANEVVAVGGAAAKASSPPGTLPKGARPGPGLLDNAIDSGSSAAQLPQKSILERKEVLVAVIVGGVVLALFAAFLVTLLIYRMKKKDEGSYTLEEPKQASVTYQKPDKQEEFYA [G396L]

Variants of: B7
Conditions: with sdc1_human SDC1, P18827

effect of a mutation on the interaction	Variant
decreasing interaction	MRRAWILLTLGLVACVSAESRAELTSDKDMYLDNSSIEEASGVYPIDDDDYASASGSGADEDVESPELTTSRPLPKILLTSAAPKVETTTLNIQNKIPAQTKSPEETDKEKVHLSDSERKMDPAEEDTNVYTEKHSDSLFKRTEVLAAVIALGVIGFLFAIFLILLLVYRMRKKDEGSYDLGERKPSSAAYQKAPTKEFYA [G152L]
decreasing interaction	MRRAWILLTLGLVACVSAESRAELTSDKDMYLDNSSIEEASGVYPIDDDDYASASGSGADEDVESPELTTSRPLPKILLTSAAPKVETTTLNIQNKIPAQTKSPEETDKEKVHLSDSERKMDPAEEDTNVYTEKHSDSLFKRTEVLAAVIAGGVILFLFAIFLILLLVYRMRKKDEGSYDLGERKPSSAAYQKAPTKEFYA [G156L]
